In patent US20140288149A1:

Target: IL-7 receptor (IL-7R), mouse (mouse) (UniProt P16872)
Assay: cell-based or functional assay

UniProt P16872, sequence (P16872 21-459, chain 1 of 2): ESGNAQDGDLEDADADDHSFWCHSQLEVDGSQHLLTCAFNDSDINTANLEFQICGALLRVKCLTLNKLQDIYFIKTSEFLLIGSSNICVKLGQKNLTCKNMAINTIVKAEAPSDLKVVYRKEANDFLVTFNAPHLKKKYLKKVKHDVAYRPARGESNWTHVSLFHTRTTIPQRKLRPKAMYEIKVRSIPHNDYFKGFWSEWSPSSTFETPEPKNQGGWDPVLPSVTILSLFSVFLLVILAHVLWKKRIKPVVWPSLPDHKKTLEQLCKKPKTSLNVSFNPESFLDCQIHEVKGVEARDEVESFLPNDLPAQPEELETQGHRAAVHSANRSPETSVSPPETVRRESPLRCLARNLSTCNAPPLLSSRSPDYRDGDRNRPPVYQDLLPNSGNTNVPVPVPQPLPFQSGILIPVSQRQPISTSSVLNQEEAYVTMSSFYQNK
UniProt P16872, sequence (P34902 23-369, chain 2 of 2, further chain): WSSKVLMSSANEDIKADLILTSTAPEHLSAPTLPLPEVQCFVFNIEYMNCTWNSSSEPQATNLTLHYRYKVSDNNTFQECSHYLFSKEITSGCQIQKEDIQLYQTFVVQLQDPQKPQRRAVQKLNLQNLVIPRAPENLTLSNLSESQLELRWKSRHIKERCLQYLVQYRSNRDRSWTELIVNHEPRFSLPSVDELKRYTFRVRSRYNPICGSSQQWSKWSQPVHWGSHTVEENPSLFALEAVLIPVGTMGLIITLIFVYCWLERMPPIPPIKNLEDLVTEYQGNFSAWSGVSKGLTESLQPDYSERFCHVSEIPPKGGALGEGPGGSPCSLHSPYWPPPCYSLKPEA

recombinant mouse IL-7 (from UniProt P10168 26-154) (ligand)
percentage of cells positive for pSTAT5 (flow cytometry / ImageStream), WT CD4+ T cells, 30 minutes of culture with IL-7: > 71% | percentage of cells positive for pSTAT5 (flow cytometry / ImageStream), mir-142-/- CD4+ T cells, 30 minutes of culture with IL-7: 8.7%
